According to patent US20170306005A1 (NASCIENT, published 2017):

Legend:
[1] = target: T1, mouse tenascin-C rCd4-His-FBG (rat; mouse, UniProt P05540 207-392, limits assumed); test: SPR, captured purified IgG4, 37 C
T1 construct: domain: domains 3 and 4; C-terminal FBG fusion; biotinylated in the ELISA screen; also called Mu TNC; mouse TNC rCd4-His-FBG; not shown: 6His tag
T1 sequence (chain (part 1 of 2)): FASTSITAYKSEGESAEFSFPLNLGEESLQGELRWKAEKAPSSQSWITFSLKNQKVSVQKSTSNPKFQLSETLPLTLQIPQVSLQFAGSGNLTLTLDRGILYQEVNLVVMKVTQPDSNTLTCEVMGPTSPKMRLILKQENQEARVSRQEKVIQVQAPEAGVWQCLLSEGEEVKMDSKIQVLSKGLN
T1 sequence (chain (part 2 of 2)): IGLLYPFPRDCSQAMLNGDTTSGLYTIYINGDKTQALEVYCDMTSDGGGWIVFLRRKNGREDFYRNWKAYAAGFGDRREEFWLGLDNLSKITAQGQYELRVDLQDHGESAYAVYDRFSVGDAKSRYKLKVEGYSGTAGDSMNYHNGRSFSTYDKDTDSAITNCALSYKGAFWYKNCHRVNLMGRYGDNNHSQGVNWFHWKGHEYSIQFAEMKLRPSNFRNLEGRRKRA

[2] = target: T2, human tenascin-R rCd4-His-FBG (rat; human, UniProt P05540 207-392, limits assumed); test: SPR, captured purified IgG4, 37 C; purified IgG4, full kinetics, SPR at 37 C
T2 construct: domain: domains 3 and 4; C-terminal FBG fusion; also called Hu TNR; human TNR rCd4-His-FBG; not shown: 6His tag
T2 sequence (chain (part 1 of 2)): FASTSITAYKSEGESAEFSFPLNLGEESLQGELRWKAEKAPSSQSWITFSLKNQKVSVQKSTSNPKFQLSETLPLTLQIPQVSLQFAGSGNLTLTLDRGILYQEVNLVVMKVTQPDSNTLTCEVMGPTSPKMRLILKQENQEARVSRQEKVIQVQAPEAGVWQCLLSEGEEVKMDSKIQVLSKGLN
T2 sequence (chain (part 2 of 2)): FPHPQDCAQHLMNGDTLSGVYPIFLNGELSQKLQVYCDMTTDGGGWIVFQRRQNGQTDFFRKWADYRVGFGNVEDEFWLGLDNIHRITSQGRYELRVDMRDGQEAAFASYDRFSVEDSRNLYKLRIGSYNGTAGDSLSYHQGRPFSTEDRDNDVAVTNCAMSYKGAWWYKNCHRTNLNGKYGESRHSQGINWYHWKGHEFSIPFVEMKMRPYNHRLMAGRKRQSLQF
Protocol: Detailed kinetic parameters were evaluated for the 9 prioritised IgG4 antibodies. Binding characteristics were determined for interaction with human, rat and dog TNC rCD4-His-FBG, and human TNR rCD4-His-FBG. Kinetic assays followed essentially the same protocols as for the off-rate determinations described above, with some modifications as follows. […] Purified anti-FBG IgG4 was diluted to a concentration of 3.5 nM in PBS, pH 7.4, 0.05% Tween-20 and injected into FC2 at a flow rate of 10 μl/min, 60 s contact time. […] Antigens were prepared by doubling dilution in PBS, pH 7.4, 0.05% Tween-20 (highest concentration 100 nM except mouse rCD4-His-FBG which was 7 nM). Assays were performed at 37° C. (30 μl/min, 120 s contact time; mouse rCD4-His-FBGFBG 10 μl/min, 60 s contact time), with both the flow cell and injection chamber equilibrated to this temperature. As before, kinetic parameters were determined by reference cell subtraction and fitting the sensogram experimental data assuming a 1:1 interaction using BIAevaluation software (GE, BR-1005-97).

[3] = target: T3, human Fc-His-FBG (human, UniProt P24821 1974-2201); test: plate assay: inhibition of binding of 100 nM Fc-His-TNC-FBG to coated TLR4, against isotype control
T3 construct: C-terminal FBG fusion to human IgG1 Fc; also called Fc-His-huFBG; huFc-His-FBG; not shown: human IgG1 Fc tag; 6His tag
T3 sequence: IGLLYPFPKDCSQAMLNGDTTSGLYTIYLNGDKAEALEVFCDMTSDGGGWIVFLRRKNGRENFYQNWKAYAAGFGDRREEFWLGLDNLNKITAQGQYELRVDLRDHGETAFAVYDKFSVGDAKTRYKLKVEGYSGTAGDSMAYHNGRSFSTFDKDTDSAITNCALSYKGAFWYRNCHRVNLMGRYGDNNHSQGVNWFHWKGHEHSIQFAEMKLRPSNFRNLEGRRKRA
Protocol: FIG. 16B. […] Detection was carried out by successive incubation of antibody directed against the Fc portion of the protein, an anti-mouse HRP conjugated secondary antibody and TMB substrate.
Detection was carried out by successive incubation of antibody directed against the Fc portion of the protein, an anti-mouse HRP conjugated secondary antibody and TMB substrate.

[4] = target: T2, human tenascin-R rCd4-His-FBG; test: SPR off-rate screen, captured IgG4 supernatant, 25 C; off-rate screen, IgG4 in culture supernatant, 100 nM TNR antigen, 25 C
Protocol: The 31 scFv of interest were sub-cloned into a human IgG4 expression vector for generation of antibodies as human IgG4 with a hinge-stabilising mutation (S241P; Angal et al, 1993). […] Briefly, surface plasmon resonance (SPR) experiments were performed using a BIAcore T100 instrument and followed the protocol according to the Human antibody capture kit protocol (GE, BR-1008-39). For off-rate screening, 10,000 response units (RU) of anti-human Fc IgG (GE, BR-1008-39) was immobilised on flow-cells (FC1 and FC2) of a Series 5 CM5 dextran sensor chip (BR-1005-30) using EDC/NHS cross-linking chemistry according to the amine coupling kit protocol (GE, BR-1000-50). Culture supernatants containing expressed IgG4 were diluted 1:2 with 2×PBS-T and injected into FC2 (flowrate 5 μl/min, 60 s contact time) to enable antibody capture at 25° C. […] A fixed concentration of antigen (15 nM of human and mouse TNC rCd4-His-FBG and 100 nM of human TNR rCd4-His-FBG) was injected with a flow-path via FC 1 (reference flow cell) and FC 2 (antibody capture flow cell), with a flow rate of 30 μl/min, and the association and dissociation phases measured over 1 and 5 min time periods, respectively. […] Off rates were determined by reference cell subtraction and fitting the sensogram experimental data assuming a 1:1 interaction using BIAevaluation software (GE, BR-1005-97).

Kd [1]: 0.46 nM | koff [1]: 0.000445 s⁻¹ | kon [1]: 972000 M⁻¹ s⁻¹ | Kd [2]: 35.8 nM | koff [2]: 0.0431 s⁻¹ | kon [2]: 1.2e+06 M⁻¹ s⁻¹ | IC50 [3]: 44.5 nM | koff [4]: 0.012 s⁻¹
B1: 165_13_C3 human IgG4 (antibody, V domains shown)
VH: QVQLVESGGGLVQPGRSLRLSCAASGFTFDDYAMHWVRQAPGKGLEWVSGISGSGGSTYYADSVKGRFTISRDNAKNSLYLQMNSLRAEDTALYYCAKSYQSDEDAFDIWGQGTMVTVSS
VL: DIQMTQSPASLPTPVGDRVTITCRASQYIQGFLNWYQQKPGKAPKLLIYDASNLETGVPSRFSGSGSGTDFTLTISSLQPEDFATYYCQQSYSTPQTFGQGTKVDIKR
notes: also called IgG4 C3; C3 IgG4 MAb
